Measured values published in the supplement of paper PMC10567573.

B1: ETS2 (parent)
chain: TSGKRYVYRFVCDLQNLLGFTPEE
B2: TRIM14 (parent)
chain: YARTPTLDPDTMHARLRLSADRLT

Variants of: B1
Assay: protein stability index of a GFP-peptide fusion (GPS, HEK-293T) (PSI 1-6); higher = more stable
Conditions: c terminus: a fixed tail appended
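Also: lentivirally expressed fusions sorted by FACS into six bins by GFP to DsRed ratio, PSI derived from sequencing read proportions per bin multiplied by bin number.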

Protein stability index: each site, then its substitutions
P22: N 1.39
L14: Y 2.56
R9: S 1.92 | G 1.58
Q15: E 1.85 | T 1.91
L17: Q 1.71 | E 3.13
D13: W 2.98 | E 2.11 | K 2.48
R5: E 1.69 | V 1.72
K4: Y 3.33 | N 2.34
V7: M 3.69 | Q 1.98
N16: W 2.05 | F 2.16 | K 2.02
S2: M 2.6 | L 3
Y8: C 1.35
E23: F 2.66 | V 2.1 | H 3.12
V11: T 2.36 | L 2.82 | I 2.64 | A 3.07
Y6: G 1.35
L18: T 1.91 | E 2.04 | N 2.29 | I 1.2
T21: H 2.75 | E 2.32 | N 2.38
F20: P 3.26 | I 1.61
F10: Q 2.7 | K 3.16 | A 2.02 | G 2.57
G19: T 1.79
E24: P 2.52
C12: E 1.76 | M 1.25

Variants of: B2
Assay: as above
Conditions: c terminus: a fixed tail appended

Protein stability index: each site, then its substitutions
T4: F 2.21 | V 2.78 | S 2.47 | R 3.13 | P 2.95 | M 2.45 | G 2.21 | N 3.1 | E 4.06 | Q 2.84 | W 1.17 | L 2.16 | C 1.95 | Y 2.32 | H 2.67 | I 3.04 | K 2.61 | D 2.6 | A 2.37
L7: A 2.75 | N 2.54 | Q 2.81 | S 2.98 | H 2.65 | F 2.54 | T 2.46 | Y 2.63 | V 3.33 | R 2.76 | E 3.65 | G 2.44 | K 2.56 | W 2.31 | C 2.1 | M 2.81 | I 1.94 | D 3.54
T11: V 2.36 | Y 2.9 | A 2.68 | N 2.45 | I 2.26 | D 3.07 | H 2.12 | K 3.29 | L 2.27 | R 3.65 | E 3.46 | P 2.79 | Q 2.81 | C 2.94 | F 2.04 | G 2.39 | M 2.12 | S 2.66 | W 2.15
H13: Q 2.84 | K 2.15 | D 3.77 | V 2.23 | M 2.69 | P 3.06 | T 2.77 | A 2.62 | Y 2.3 | I 2.69 | C 2.27 | L 2.61 | S 3.17 | E 2.71 | R 2.87 | F 2.63 | W 2.51 | N 2.75
P9: A 2.82 | N 3.11 | T 2.58 | S 2.04 | G 3.11 | E 2.56 | R 2.96 | D 2.98 | W 2.17 | H 2.92 | K 3.15 | M 3.07 | F 2.21 | C 2.1 | L 2.1 | Y 2.22 | V 2.41 | Q 2.56 | I 2.3
A14: T 2.61 | F 1.96 | D 3.25 | L 2.81 | R 2.13 | P 2.45 | S 3.02 | C 2.62 | N 3.08 | Q 2.59 | E 2.67 | V 2.53 | M 2.36 | H 2.04 | Y 1.98 | G 3.26 | I 2.13 | W 2.7 | K 1.83
T6: R 1.94 | F 2.24 | K 2.33 | G 2.37 | N 1.96 | S 2.28 | Q 2.33 | E 2.94 | L 2.56 | C 2.34 | I 2.1 | V 2.22 | Y 1.94 | D 3.4 | W 2.79 | A 2.64 | M 2.71 | H 2.44 | P 2.3
R3: I 2.57 | N 3.14 | P 1.76 | M 2.53 | K 2.87 | F 1.85 | S 2.86 | A 2.66 | L 3.34 | C 3.02 | Q 3.81 | W 1.92 | V 3 | D 3.8 | E 2.18 | Y 1.83 | H 3.12 | T 3.05 | G 2.78
D10: K 3.05 | P 2.31 | L 2.05 | M 2.4 | F 1.64 | T 2.66 | Y 2.34 | A 1.98 | V 2.78 | S 3.77 | E 2.66 | C 2.22 | Q 2.56 | W 3.31 | N 3.23 | H 2.29 | G 2.48 | I 2
R15: T 3.03 | N 2.61 | V 2.04 | H 2.73 | S 3.53 | C 1.85 | E 3.25 | K 2.45 | I 2.87 | P 2.83 | G 3.36 | W 1.95 | A 2.81 | F 1.93 | D 2.8 | M 2.73 | L 2.29 | Y 2.26 | Q 2.43
L16: I 2.56 | H 3.27 | F 2.84 | E 3.5 | K 3.01 | C 1.93 | D 2.77
M12: F 2.01 | H 3.13 | D 3.94 | A 2.56 | E 3.6 | V 2.06 | G 2.89 | S 3.21 | P 3.2 | Y 2.01 | R 3.07 | T 2.74 | L 2.43 | K 2.72 | Q 2.68 | N 3.63 | C 2.34 | I 2.62
A2: E 3.71 | M 2.69 | N 3.09 | R 2.85 | Y 2.9 | K 2.98 | G 3.06 | I 1.73 | H 2.46 | L 2.77 | C 2.53 | Q 2.71 | P 3.9 | D 3.32 | V 1.89 | W 2.5 | T 2.46 | S 2.44 | F 2.74
D8: H 1.87 | L 2.41 | C 2.1 | S 2.5 | G 2.18 | K 2.95 | Y 1.8 | V 2.78 | F 2.5 | N 2.58 | R 1.98 | Q 2.52 | A 2.15 | E 2.26 | T 2.45 | M 2.22 | I 2.24 | P 2.41 | W 2.08
P5: I 2.17 | Q 2.56 | K 3.12 | S 2.16 | F 2.06 | R 1.98 | D 3.57 | E 2.62 | W 2.37 | M 1.54 | L 2.34 | G 2.88 | A 2.08 | H 2.84 | N 2 | Y 2.11 | V 1.96 | C 2.18
Y1: W 2.91 | C 3.2 | K 3.71 | Q 4.33 | P 3.77 | V 3.68 | A 3.59 | H 4.06 | L 3.62 | I 2.71 | E 4.17 | T 3.69 | R 3.64 | N 3.52 | G 4 | M 3.71 | F 2.21 | D 3.61
